Reference: patent US20050053918A1, “Method of identifying peptides capable of binding to MHC molecules, peptides identified thereby and their uses” (priority 2001, published 2005)

B1: YLLPAIVHI (peptide)
peptide: YLLPAIVHI
B2: ALSDHHIYL (peptide)
peptide: ALSDHHIYL
notes: also called p1068
B3: ILDKKVEKV (peptide)
peptide: ILDKKVEKV
B4: SLLPPTALVGL (peptide)
peptide: SLLPPTALVGL
notes: also called p1080
B5: SLLPPDALVGL (peptide)
peptide: SLLPPDALVGL
notes: also called p1094
B6: FLFDGSPTYVL (peptide)
peptide: FLFDGSPTYVL
notes: also called p1258
B7: LLDVPTAAV (peptide)
peptide: LLDVPTAAV
notes: also called p898
B8: LLLDVPTAAV (peptide)
peptide: LLLDVPTAAV
notes: also called p1011
B9: LLLDVPTAAVQA (peptide)
peptide: LLLDVPTAAVQA
notes: also called p1210; p11210
B10: GLLGTLVQL (peptide)
peptide: GLLGTLVQL
notes: also called p913
B11: SLWGQPAEA (peptide)
peptide: SLWGQPAEA
notes: also called p958
B12: SLSEKTVLL (peptide)
peptide: SLSEKTVLL
notes: also called p989 of CD59
B13: SLFPGKLEV (peptide)
peptide: SLFPGKLEV
notes: also called p989 of FLI
B14: GLIEKNIEL (peptide)
peptide: GLIEKNIEL
notes: also called p1028
B15: GLYPGLIWL (peptide)
peptide: GLYPGLIWL
notes: also called p1031

Legend:
soluble HLA-A2 = soluble HLA-A2 (Homo sapiens, UniProt P04439, D140Y/D185E/D98H/E176V/E277Q/G131W/G231S/I119V/I121R/I166T/I218V/N151K/N90K/P208A/P217A/Q86G/Q94H/R138H/R169H); test: Appearance of peptides recovered from soluble HLA-A2 of cancer cell lines (ESI-MS/MS); details: MCF-7, MDA-231, PC3, UCI-107
Description: Cell lines were co-transfected with plasmid HLA-A2/Q10^b and with phβ2m, which conferred resistance to the antibiotic G418 or transfected only with the plasmids sHLA-A2, sHLA-B7 and sHLA-Cw4 that contained the antibiotic resistance. Cells were electroporated by use of a Gene Pulser (Bio-Rad) set at […] 960 μF. Transfected cell clones were selected in G418 antibiotic and screened for those secreting sMHC to the growth medium. […] Color was developed with ABTS (Sigma) catalyzed by streptavidin peroxidase (Sigma).
Cultured cells, expressing the soluble MHC were grown to confluency in 150 mm plates. The culture medium was collected and residual cells were removed by centrifugation. […] The antibodies were coupled to NHS-activated agarose (Pharmacia) or to protein A Sepharose (Sigma) with n-methylpipelimidate (Sigma). The columns were washed with 0.5 M NaCl, 20 mM, Tris pH 8. The MHC molecules were eluted from the column with 0.1 M acetic acid at pH 3. Peptides were separated from the MHC complexes by boiling for five minutes in 10% acetic acid followed by ultra-filtration through a 3 kDa Microcon (Amincon).
The MHC bound peptides were resolved by reverse-phase HPLC on a 0.1 ID fused silica capillaries with length of about 30 cm (J&W) slurry packed with POROS 10 R2 (PerSepetive Biosystems). The capillaries were fitted with electrospray needle made from 36-gauge stainless tubing (Small Parts Inc. Miami Lakes, Fla.). A Rheodyne 9125 HPLC injector fitted with a 20 μl loop was used for loading the column. The peptides were resolved by a relatively long (90 minutes) linear gradient of 5 to 50% acetonitrile with 0.1% acetic acid, at a flow rate of about 1 μl/minute. The flow was electrosprayed directly from the HPLC column into an ion trap mass spectrometer (LCQ, Finnigan). The mass spectrometry analysis was done in the positive ion mode, using repetitively a full MS scan usually between 450 to 1500 atomic mass units (amu) followed by collision-induced decomposition (CID) of the dominant ion selected from the previous MS scan. In some cases the full MS was performed with a narrower mass range to reduce the number of detected peptides. The peptides were identified by comparing their MS and CID data to the calculated MS and CID of the proteins in the Genpept databank (www.ncbi.nlm.nih.gov/genpept) using the Sequest software (obtained from Finnigan, San Jose, Calif.). The number of times each peptide was fragmented by CID was usually limited to two by dynamic exclusion, a feature of the Xcalibur control software the LCQ mass spectrometer (Finnigan).

[1] = test system: EL4-HHD cells loaded with the synthetic peptides; test: Cytotoxic T lymphocytes assay after immunization of HHD transgenic mice; assay type: in vivo; details: compared to negative control peptide ALLCAPSLL; effector-to-target ratio 50:1 shown
Description: Cells were loaded separately with individual peptides, washed and injected in four groups: 1-p1028 (SEQ ID NO:13) alone, 2-p1258 (SEQ ID NO:24) alone, 3—pool of peptides: p913 (SEQ ID NO:5), p958 (SEQ ID NO:9), p989 of CD59 (SEQ ID NO:11) and p989 of FLI (SEQ ID NO:12), 4—peptides p1031 (SEQ ID NO:14), p1121 (SEQ ID NO:22) and p1068 (SEQ ID NO:16). Unloaded EL4-HHD or targets cells not loaded with the peptides were used as negative controls. An effector-to-target ratio of 50:1 is shown.
Transgenic mice expressing a single chain HLA-A2.1/Db-β2m which are double knockout for H-2 Db and for β2m (HHD mice) were immunized four times intra-peritoneally at 7-day interval with 2×10^6 irradiated (5,000 rad) RMA-S-HHD-B7.1 cells loaded for two hours at 26° C. followed by two hours at 37° C. with 100 μM of the synthetic peptides. Ten days after the last immunization the spleens were removed from the vaccinated mice. Splenocytes were re-stimulated with 100 μM of synthetic peptides for five days. Viable lymphocytes were separated by lympholyte-M (Cadarlane, Homby, Canada) and resuspended in RPMI-HEPES. Cytotoxic activity was measured as in [26] by admixing the lymphocytes at different ratios with 5×10^3 EL4-HHD cells grown in medium containing ^35S methionine and then loaded with the synthetic peptides.
To further evaluate the affinity of the peptides to the HLA-A2 and to obtain some insight into their immunogenic potential, selected peptides were tested for their ability to induce an immune response in HLA-A2 transgenic mice. It was assumed that only peptides that could be effectively presented and remain tightly bound to the cells would be capable of inducing an immune response in these mice. The same synthetic peptides that were used for the FACS analysis were used for immunization of the HHD transgenic mice, which express the human HLA-A2.1/Db-β2m single chain. To immunize the mice, the HHD culture cells were loaded with the different peptides and then injected to the HHD mice. The immune response in the mice was followed by the appearance of CTLs specific for these peptides. Some of the peptides were indeed capable of inducing an immune response, which both authenticate them as MHC bound peptides and gives an indication about their immunogenic potential.

HLA-A2.1 = test system: T1, HLA-A2.1; test: Stabilization of cell surface HLA-A2.1 by peptide binding on RMA-S-HHD cells (FACS); assay type: cell-based, human; details: 100 μM peptide, 2 h 26° C. + 2 h 37° C., FACS with W6/32 mAb
T1 construct: expressed in transfected cells; host or cells: RMA-S-HHD (murine TAP-2 deficient lymphoma, C57BL/6 origin)
Protocol: Synthetic peptides were added to […] RMA-S-HHD cells to a concentration of […] followed by incubation for two hours at 26° C. and two hours at 37° C. […] The HLA-A2.1 peptide derived from gp100 served as a positive control and unloaded RMA-S-HHD cells as a negative control.
RMA-S-HHD cells were washed three times with PBS followed by incubation overnight in FCS-free IMDM medium at 26° C. Synthetic peptides were added to 10^6 cells at a concentration of 100 μM. The cells were incubated for two hours at 26° C. followed by two hours at 37° C. […] (Sigma).
Another approach to ascertain that the identified peptides were indeed MHC bound peptide antigens, their capacity to bind tightly and stabilize cell surface HLA-A2.1 was tested by reconstitution into empty MHC on the surface of RMA-S-HHD cells.

sHLA-A2 = target: T2, sHLA-A2 (human); test: sMHC eluate MS, UCI-101
T2 construct: also called sA2; sMHC-A2

| Molecule | binding result (sHLA-A2) | also measured |
| --- | --- | --- |
| ALFGALFLA |  | appearance of peptide in soluble HLA-A2 from cell lines of different tissue origin (soluble HLA-A2): recovered only from PC3 cells |
| ALSDHHIYL [from aldolase A] |  | lysis of EL4-HHD cells loaded with the peptides by CTLs of immunized HHD mice [1]: significant lysis |
| FLFDGSPTYVL [from fatty acid synthase] |  | lysis of EL4-HHD cells loaded with the peptides by CTLs of immunized HHD mice [1]: significant lysis |
| GLIEKNIEL [from DNA (cytosine-5-)-methyltransferase] |  | lysis of EL4-HHD cells loaded with the peptides by CTLs of immunized HHD mice [1]: significant lysis |
| GVYDGEEHSV [from MAGE XP-2 protein (MAGE-B2)] |  | binding affinity to MHC by reconstitution and stabilization of empty MHC on the surface of RMA-S-HHD cells (HLA-A2.1): normal; appearance of peptide in soluble HLA-A2 from cell lines of different tissue origin (soluble HLA-A2): detected only in the ovarian cancer cells (UCI-107) |
| NLTISDVSV [from MUC1] |  | appearance of peptide in soluble HLA-A2 from cell lines of different tissue origin (soluble HLA-A2): recovered only from MCF-7 grown without estrogen |
| SLIGHLQTL [from protein tyrosine posphatase] |  | appearance of peptide in soluble HLA-A2 from cell lines of different tissue origin (soluble HLA-A2): detected only in the breast cancer cell MDA-231 |
| SLLGGDVVSV [from TSC-22 related protein] |  | appearance of peptide in soluble HLA-A2 from cell lines of different tissue origin (soluble HLA-A2): detected at high level in the two-breast cancer cells (MCF-7 and MDA-231), but was not observed in the ovarian (UCI-107) and the prostate (PC3) cancer cells |
| TLWVDPYEV [from BTG2] |  | lysis of EL4-HHD cells loaded with the peptides by CTLs of immunized HHD mice [1]: significant lysis |
| B1 | binds |  |
| B2 | binds |  |
| B3 | binds |  |
| B4 | binds |  |
| B5 | binds |  |
| B6 | binds |  |
| B7 | binds |  |
| B8 | binds |  |
| B9 | binds |  |
| B10 | binds |  |
| B11 | binds |  |
| B12 | binds |  |
| B13 | binds |  |
| B14 | binds |  |
| B15 | binds |  |
